What was measured:
Experiment in all cases: cleavage_in_vitro
[1] = test system: T1, OMNI-78 (Notoacmeibacter marinus); conditions: PAM NRRNAT; TXTL
T1 sequence: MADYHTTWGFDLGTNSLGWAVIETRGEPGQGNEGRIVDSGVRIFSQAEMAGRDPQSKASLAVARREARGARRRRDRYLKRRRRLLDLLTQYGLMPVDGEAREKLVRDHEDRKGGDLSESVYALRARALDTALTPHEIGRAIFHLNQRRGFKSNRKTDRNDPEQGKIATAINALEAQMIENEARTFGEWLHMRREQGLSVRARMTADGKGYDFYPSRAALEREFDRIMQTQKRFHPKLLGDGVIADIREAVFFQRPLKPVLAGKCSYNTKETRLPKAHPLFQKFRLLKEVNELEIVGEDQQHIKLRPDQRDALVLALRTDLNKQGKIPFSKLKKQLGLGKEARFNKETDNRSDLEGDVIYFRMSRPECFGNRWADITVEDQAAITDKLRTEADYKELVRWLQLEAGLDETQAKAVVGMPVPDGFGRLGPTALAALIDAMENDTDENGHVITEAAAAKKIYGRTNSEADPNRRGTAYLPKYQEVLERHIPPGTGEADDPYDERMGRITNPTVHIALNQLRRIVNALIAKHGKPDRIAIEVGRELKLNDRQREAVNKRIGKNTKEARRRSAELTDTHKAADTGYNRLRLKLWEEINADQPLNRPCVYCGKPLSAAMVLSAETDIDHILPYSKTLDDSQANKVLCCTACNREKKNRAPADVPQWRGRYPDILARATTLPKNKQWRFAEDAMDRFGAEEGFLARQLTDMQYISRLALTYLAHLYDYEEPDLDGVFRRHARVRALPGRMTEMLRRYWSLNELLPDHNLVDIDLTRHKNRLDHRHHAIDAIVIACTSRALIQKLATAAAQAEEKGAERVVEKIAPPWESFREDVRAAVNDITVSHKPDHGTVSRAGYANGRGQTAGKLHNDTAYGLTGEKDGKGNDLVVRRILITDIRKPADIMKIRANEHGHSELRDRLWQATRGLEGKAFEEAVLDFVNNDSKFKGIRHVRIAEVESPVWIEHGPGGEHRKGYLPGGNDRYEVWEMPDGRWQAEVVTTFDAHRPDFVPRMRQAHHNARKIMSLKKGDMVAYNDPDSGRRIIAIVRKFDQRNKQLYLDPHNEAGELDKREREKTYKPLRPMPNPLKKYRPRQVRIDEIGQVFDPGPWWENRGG

[2] = test system: T2, OMNI-84 (Porphyrobacter donghaensis); conditions: PAM NNNNGCAA; TXTL
T2 sequence: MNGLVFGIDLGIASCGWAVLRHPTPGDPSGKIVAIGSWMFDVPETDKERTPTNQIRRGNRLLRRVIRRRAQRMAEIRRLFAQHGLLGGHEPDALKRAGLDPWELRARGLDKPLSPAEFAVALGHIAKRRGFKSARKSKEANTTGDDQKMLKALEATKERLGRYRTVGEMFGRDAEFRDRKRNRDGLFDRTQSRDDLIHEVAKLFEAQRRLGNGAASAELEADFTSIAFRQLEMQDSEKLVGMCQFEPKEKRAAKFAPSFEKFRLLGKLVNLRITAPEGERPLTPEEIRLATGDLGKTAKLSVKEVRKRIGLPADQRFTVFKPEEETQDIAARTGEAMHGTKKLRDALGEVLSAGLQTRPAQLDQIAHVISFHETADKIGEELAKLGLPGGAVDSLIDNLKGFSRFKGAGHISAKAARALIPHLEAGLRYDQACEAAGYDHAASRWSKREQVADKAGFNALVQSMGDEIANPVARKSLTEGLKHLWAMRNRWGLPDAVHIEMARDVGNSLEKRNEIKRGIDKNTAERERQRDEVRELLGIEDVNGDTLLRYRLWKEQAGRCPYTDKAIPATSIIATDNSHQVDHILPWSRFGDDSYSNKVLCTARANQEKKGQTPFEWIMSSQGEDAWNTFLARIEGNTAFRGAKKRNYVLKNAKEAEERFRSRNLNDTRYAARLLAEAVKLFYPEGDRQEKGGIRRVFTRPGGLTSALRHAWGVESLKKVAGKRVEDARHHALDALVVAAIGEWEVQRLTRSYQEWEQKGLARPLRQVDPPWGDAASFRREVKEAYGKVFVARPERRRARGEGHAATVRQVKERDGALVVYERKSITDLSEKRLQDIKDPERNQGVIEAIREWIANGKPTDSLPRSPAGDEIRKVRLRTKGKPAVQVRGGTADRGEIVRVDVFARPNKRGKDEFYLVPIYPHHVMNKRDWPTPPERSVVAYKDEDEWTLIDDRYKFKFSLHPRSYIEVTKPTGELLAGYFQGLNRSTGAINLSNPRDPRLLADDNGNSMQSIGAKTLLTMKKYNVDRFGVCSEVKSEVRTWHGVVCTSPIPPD

[3] = test system: T3, OMNI-68 (Gemmiger sp. An50); conditions: PAM NNNVTA; TXTL
T3 sequence: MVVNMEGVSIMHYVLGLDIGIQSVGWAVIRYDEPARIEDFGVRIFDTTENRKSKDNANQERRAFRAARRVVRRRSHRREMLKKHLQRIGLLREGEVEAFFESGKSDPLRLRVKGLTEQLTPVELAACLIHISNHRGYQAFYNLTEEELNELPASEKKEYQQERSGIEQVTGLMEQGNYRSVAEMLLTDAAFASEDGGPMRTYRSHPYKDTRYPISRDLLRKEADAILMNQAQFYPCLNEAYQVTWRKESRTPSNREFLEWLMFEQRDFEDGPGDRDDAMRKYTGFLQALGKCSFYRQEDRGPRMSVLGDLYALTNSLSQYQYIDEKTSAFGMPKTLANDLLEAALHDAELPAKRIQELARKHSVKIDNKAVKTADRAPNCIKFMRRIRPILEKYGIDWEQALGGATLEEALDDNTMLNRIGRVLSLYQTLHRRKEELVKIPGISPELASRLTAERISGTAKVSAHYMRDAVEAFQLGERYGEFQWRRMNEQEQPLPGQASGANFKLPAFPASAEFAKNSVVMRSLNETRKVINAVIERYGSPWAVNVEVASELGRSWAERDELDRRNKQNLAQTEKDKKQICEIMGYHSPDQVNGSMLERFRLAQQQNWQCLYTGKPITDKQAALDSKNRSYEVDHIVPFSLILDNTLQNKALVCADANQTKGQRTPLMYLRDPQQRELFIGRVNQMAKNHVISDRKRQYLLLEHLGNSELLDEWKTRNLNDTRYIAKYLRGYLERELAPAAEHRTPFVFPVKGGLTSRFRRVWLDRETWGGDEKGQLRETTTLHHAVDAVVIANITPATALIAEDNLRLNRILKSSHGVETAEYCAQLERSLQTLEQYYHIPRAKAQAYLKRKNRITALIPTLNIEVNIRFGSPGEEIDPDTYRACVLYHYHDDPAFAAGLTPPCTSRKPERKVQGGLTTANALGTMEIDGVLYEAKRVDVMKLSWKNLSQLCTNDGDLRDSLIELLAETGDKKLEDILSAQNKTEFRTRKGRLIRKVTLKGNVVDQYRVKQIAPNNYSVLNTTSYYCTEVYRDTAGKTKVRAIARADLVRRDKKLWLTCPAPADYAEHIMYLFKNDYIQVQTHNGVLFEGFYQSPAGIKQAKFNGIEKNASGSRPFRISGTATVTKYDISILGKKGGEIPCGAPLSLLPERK

[4] = test system: T4, OMNI-75 (Lactococcus sp. 1JSPR-7); conditions: PAM NNGNRA; TXTL
T4 sequence: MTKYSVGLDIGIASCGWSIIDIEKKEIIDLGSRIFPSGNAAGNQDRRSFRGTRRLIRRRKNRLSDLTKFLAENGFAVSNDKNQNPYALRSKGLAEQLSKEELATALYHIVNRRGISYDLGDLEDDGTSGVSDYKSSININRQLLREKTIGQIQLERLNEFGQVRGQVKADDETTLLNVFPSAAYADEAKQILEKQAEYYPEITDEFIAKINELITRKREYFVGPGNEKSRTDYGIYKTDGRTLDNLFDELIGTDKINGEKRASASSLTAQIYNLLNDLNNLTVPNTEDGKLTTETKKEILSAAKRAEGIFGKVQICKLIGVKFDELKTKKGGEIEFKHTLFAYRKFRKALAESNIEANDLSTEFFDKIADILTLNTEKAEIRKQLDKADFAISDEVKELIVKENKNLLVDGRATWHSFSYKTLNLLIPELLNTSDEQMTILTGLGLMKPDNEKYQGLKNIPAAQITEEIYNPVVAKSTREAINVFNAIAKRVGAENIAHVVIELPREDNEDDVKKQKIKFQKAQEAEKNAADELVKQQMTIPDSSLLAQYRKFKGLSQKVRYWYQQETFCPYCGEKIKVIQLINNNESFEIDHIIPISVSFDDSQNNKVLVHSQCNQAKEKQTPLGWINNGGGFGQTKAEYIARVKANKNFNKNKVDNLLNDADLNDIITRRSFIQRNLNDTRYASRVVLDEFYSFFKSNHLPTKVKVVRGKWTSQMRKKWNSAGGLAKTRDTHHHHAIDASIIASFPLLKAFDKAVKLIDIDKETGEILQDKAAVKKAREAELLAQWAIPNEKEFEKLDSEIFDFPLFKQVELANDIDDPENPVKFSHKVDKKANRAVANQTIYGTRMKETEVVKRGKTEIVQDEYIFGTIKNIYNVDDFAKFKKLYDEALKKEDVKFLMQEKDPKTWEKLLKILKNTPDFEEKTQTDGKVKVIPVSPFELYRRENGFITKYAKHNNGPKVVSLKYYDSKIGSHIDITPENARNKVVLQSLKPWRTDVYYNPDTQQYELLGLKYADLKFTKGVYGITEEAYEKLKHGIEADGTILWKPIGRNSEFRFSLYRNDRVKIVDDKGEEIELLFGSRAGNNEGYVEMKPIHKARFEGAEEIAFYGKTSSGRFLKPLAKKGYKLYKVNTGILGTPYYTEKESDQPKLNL

In the case of “GGAAGAGCAGAGCCUUGGUCUCGUUGCGGUUGGCCUGCGAGAAAUCGCAGUCCAGCCGUUAACAAGCUGAGAUAUGCACCAGAUAAGGCGCUCGCUCCGGCGAGCGCUUUUUU / GGAAGAGCAGAGCCTTGGTCTCNNNNNNNN / NNNNNNNNGAGACCAAGGCTCTGCTCTTCC”, the activity (1-depletion score) [1] is reported as 0.9.

Sequence “GGAAGAGCAGAGCCUUGGUCUCGCCGUGGUUUCCCUACCGAUUUGCCCAUGGUAGGGAAAGUUAUCGGCAAAUCGGUAGGGAAGCCACGGUAACAGAGCUUCACUGUGAAGGAUCAUCCUGAAGGGGAAAUUCCUUAUUGAAGCACUGAUACAGAGCUUCUGUAUUCAAACGACCCUUUCUGAGAUAUCAGAGAGGGUCGUUUUU / GGAAGAGCAGAGCCTTGGTCTCNNNNNNNN / NNNNNNNNGAGACCAAGGCTCTGCTCTTCC” has an activity (1-depletion score) [2] of 0.93.

For “GGAAGAGCAGAGCCUUGGUCUCGUUUUGGUUCUCUGAUGGGAAACAUCAGAAGUUCUAAGAUAAGGCUUUACGCCGCAGGGUAUGGUGGUAUCCCGAACAAUCCACCGUUUCAGGAAUAGCGCAGCACUGGUUUCCAGUGCUGUUUUU / GGAAGAGCAGAGCCTTGGTCTCNNNNNNNN / NNNNNNNNGAGACCAAGGCTCTGCTCTTCC”, the activity (1-depletion score) [3] was 0.88.

“GGAAGAGCAGAGCCUUGGUCUCGUUUUUGUACUCUCAAGAAAUUGAGAAUCUACAAGGAUAAGGCUUUAUGCCGAAAUCAUUAACUCGCCUUUGGGCGAGUUUUUU / GGAAGAGCAGAGCCTTGGTCTCNNNNNNNN / NNNNNNNNGAGACCAAGGCTCTGCTCTTCC” was tested, and the activity (1-depletion score) [4] was 0.93.
